Measured values reported in US20110318339A1 (FABRUS, published 2011).
Blank lines part the entries; values can stand above or below the binder they belong to.

Assays:
[1] = target: T1, DLL4 DSL (amino acid: 1-217) construct (human, UniProt Q9NR61 26-217); test: Western blot, non-reducing
T1 construct: also called DSL construct; not shown: myc tag (and his tag) added by the PCR primers
Description: (§1) Media from transfected CHO cells was collected after 7 days. To enrich for the DLL4 protein, 1 ml aliquots of each sample were batch bound with 50 μl of Talon Resin for 30 minutes. To confirm protein production media samples were tested with mouse anti-c-myc mAb (Genescript; Catalog # A00704). Samples were washed and then boiled with loading dye in the presence or absence of DTT. A gel was run on each of the 2 samples for each condition: with DTT and without DTT. […] For detection goat anti-mouse HRP, goat anti-kappa HRP, and goat anti-lambda HRP were used, respectively.

[2] = target: T2, DLL4 Egf1 (amino acid: 1-251) construct (human, UniProt Q9NR61 26-251); test: Western blot, non-reducing
T2 construct: also called EGF1 construct; not shown: myc tag (and his tag) added by the PCR primers
Description: as §1

[3] = target: T3, DLL4 Egf2 (amino acid: 1-282) construct (human, UniProt Q9NR61 26-282); test: Western blot, non-reducing
T3 construct: also called EGF2 construct; not shown: myc tag (and his tag) added by the PCR primers
Description: as §1

[4] = target: T4, recombinant human DLL4 (Cat# 1506-D4/CF, R&D Systems) (human, UniProt Q9NR61 27-529); test: ELISA, DLL4 coated, Fab 25 nM
T4 construct: Bought protein; also called hDLL4; rHuman DLL4
Outline: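 A450 read-out after 2 min TMB development and acid stop. Fab, serially diluted in 1% BSA/PBS, bound in triplicate for 1 h at RT on plates blocked with 1% BSA/TBST; detection via HRP goat anti-human kappa or lambda (1:1000, 30 min RT).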

[5] = target: T4, recombinant human DLL4 (Cat# …); test: ELISA, DLL4 coated, Fab 12.5 nM
Description: (§2) The plate was blocked by adding 1% BSA in Tris-buffered Saline Tween (TBST) and incubating for 1 hour at room temperature followed by washing 2 times with 150 μl TBST. A Fab antibody was serially diluted in 1% BSA in PBS. A 50 μl aliquot of each serial dilution was added, in triplicate, to each well and the plate was incubated for 1 hour at room temperature followed by washing 2 times with TBST. 50 μl of either goat anti-human kappa HRP conjugated secondary antibody (Cat # A7164-1 mL, Sigma-Aldrich) or goat anti-human lambda HRP conjugated secondary antibody (Cat # L1645-1 ml, Sigma-Aldrich), diluted 1:1000 in 1% BSA in PBS, was added to each well and the plate was incubated for 30 minutes at room temperature followed by washing 3 times with 200 μl TBST. Finally, 50 μl TMB one-component reagent (Cat # TMBW-1000-01, BioFax) was added and allowed to develop for 2 minutes at room temperature. The reaction was immediately halted by the addition of 50 μl 0.5M H₂SO₄ and the absorbance at 450 nm was measured using an ELISA plate reader.

[6] = target: T4, recombinant human DLL4 (Cat# …); test: ELISA, DLL4 coated, Fab 50 nM
Description: as §2

[7] = target: T4, recombinant human DLL4 (Cat# …); test: SPR (ProteOn), hDLL4 amine-coupled on chip; 2-site binding, 89% of it by the footnote
Description: (§3) In this example, the binding affinities of selected anti-DLL4 Fabs to recombinant human DLL4 (hDLL4, Cat# 1506-D4/CF, R&D Systems) were analyzed using Surface Plasmon Resonance (SPR) (Biosensor Tools, Salt Lake City, Utah). The Fabs analyzed include germline-derived antibodies and germline-modified DLL4 antibodies. Recombinant hDLL4 was immobilized on a SPR chip using amine coupling at three different surface densities. The Fabs were serially diluted 3-fold, with an initial concentration of 1 μM. Binding studies were run on a ProteOn system using a GLM sensor chip in 10 mM HEPES, pH 7.4, 150 mM NaCl, 0.01% Tween-20, and 0.1 mg/ml BSA at 25° C. The response data from each surface was globally fit to determine the binding constants.

[8] = target: T4, recombinant human DLL4 (Cat# …); test: SPR (ProteOn), hDLL4 amine-coupled on chip; 2-site binding, 10% of it by the footnote
Description: as §3

[9] = target: T4, recombinant human DLL4 (Cat# …); test: ELISA, DLL4 coated, Fab 75 nM
[10] = target: T4, recombinant human DLL4 (Cat# …); test: ELISA, DLL4 coated, Fab 6.25 nM
Description: as §2

[11] = target: T4, recombinant human DLL4 (Cat# …); test: SPR (ProteOn), hDLL4 amine-coupled on chip
Outline: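 SPR on a ProteOn GLM chip, with DLL4 amine-coupled at three surface densities. Fab analytes were run as 3-fold serial dilutions from 1 μM in 10 mM HEPES pH 7.4, 150 mM NaCl, 0.01% Tween-20, 0.1 mg/ml BSA at 25° C. Responses from each surface were globally fit for binding constants.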

[12] = target: T4, recombinant human DLL4 (Cat# …); test: ELISA, DLL4 coated, Fab 100 nM
Description: as §2

[13] = target: T4, recombinant human DLL4 (Cat# …); test: ELISA, DLL4 coated, Fab 50 nM; remark: listed apart in the source
Description: as §2

[14] = target: T4, recombinant human DLL4 (Cat# …); test: ELISA, DLL4 coated, Fab 3.125 nM
Description: as §2

[15] = target: T4, recombinant human DLL4 (Cat# …); test: ELISA, DLL4 coated, Fab 100 nM; remark: listed apart in the source

binding result [1]: no binding (tested: 20 nM Fab)
binding result [2]: no binding (tested: 20 nM Fab)
binding result [3]: no binding (tested: 20 nM Fab)
B1: Fab VH5-51_IGHD5-18*01>3_IGHJ4*01 H:KT TRV & V3-4_IGLJ1*01 L:LP S52G (Fab, V domains shown)
VH: EVQLVQSGAEVKKPGESLKISCKTSGYRFTSYWIVWVRQMPGKGLEWMGIIYPGDSDTRYSPSFQGQVTISADKSISTAYLQWSSLKASDTAMYYCARRKYSYTYDYFDYWGQGTLVTVSS
VL: QTVVTQEPSFSVSPGGTVTLTCGLSSGSVSTSYYPSWYQQTPGQAPRTLIYGTNTRSSGVPDRFSGSILGNKAALTITGAQADDESDYYCLLYMGPGISYVFGTGTKVTVL
notes: Fab, lambda light chain; also called Fab H:KT TRV & L:LP S52G

ELISA absorbance at 450 nm [4]: 0.31 A450
ELISA absorbance at 450 nm [5]: 0.192 A450
ELISA absorbance at 450 nm [6]: 0.202 A450
Kd [7]: 155 nM
Kd [8]: 14 nM
ELISA absorbance at 450 nm [9]: 0.268 A450
ELISA absorbance at 450 nm [10]: 0.125 A450
koff [11]: 0.0689 s⁻¹
kon [11]: 444000 M⁻¹ s⁻¹
ELISA absorbance at 450 nm [12]: 0.686 A450
ELISA absorbance at 450 nm [13]: 0.507 A450
ELISA absorbance at 450 nm [14]: 0.096 A450
ELISA absorbance at 450 nm [15]: 0.259 A450
B2: Fab VH1-46_IGHD6-6*01_IGHJ1*01 S102A/S103P/S104F/H111F & L6_IGKJ1*01 S28N/S30D/S31H (Fab, V domains shown)
VH: QVQLVQSGAEVKKPGASVKVSCKASGYTFTSYYMHWVRQAPGQGLEWMGIINPSGGSTSYAQKFQGRVTMTRDTSTSTVYMELSSLRSEDTAVYYCAREEYAPFSAEYFQFWGQGTLVTVSS
VL: EIVLTQSPATLSLSPGERATLSCRASQNVDHYLAWYQQKPGQAPRLLIYDASNRATGIPARFSGSGSGTDFTLTISSLEPEDFAVYYCQQRSNWPPWTFGQGTKVEIKR
notes: Fab made in E. coli: VH on CH1 with His6 and Flag tags (Plasmid A), VL on kappa CL (Plasmid C); also called H: APFF & L: NDH
